Experimental data from the supplement of paper PMC10567573.

B1: TMEM120A (parent)
chain: YQSFVQFLQYYYQSGCLYRLRALG
B2: DLC1 (parent)
chain: HVTHWMGQPFNSDDRNTACHHGLV

Variants of: B1
Assay: protein stability index of a GFP-peptide fusion (GPS, HEK-293T) (PSI 1-6); higher = more stable
Conditions: c terminus: a fixed tail appended
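Note: lentivirally expressed fusions sorted by FACS into six bins by GFP to DsRed ratio, PSI derived from sequencing read proportions per bin multiplied by bin number.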

| Variant | protein stability index |
| --- | --- |
| Y12M | 3.19 |
| Y12R | 2.3 |
| Y12C | 4.09 |
| Y12G | 2.04 |
| Y12I | 2.34 |
| Y12H | 2.51 |
| Y12F | 2.15 |
| Y12L | 1.19 |
| Y12T | 2.73 |
| Y12A | 3.04 |
| Y12K | 1.86 |
| F7Y | 5.14 |
| L17F | 2.63 |
| L17D | 3.82 |
| L17T | 1.6 |
| L17C | 3.92 |
| L17R | 4.75 |
| L17W | 3.23 |
| L17M | 2.14 |
| Y10E | 1.79 |
| Y10A | 1.83 |
| Y10Q | 2.35 |
| Y10G | 3.01 |
| Y10S | 2.58 |
| Y10H | 2.17 |
| Y10C | 2.56 |

| Variant | protein stability index |
| --- | --- |
| Y10I | 4.51 |
| C16T | 2.12 |
| C16N | 1.04 |
| C16Q | 2.49 |
| C16K | 1.72 |
| C16R | 2.24 |
| L20E | 2.34 |
| L20V | 3.1 |
| L20M | 2.47 |
| L20K | 3.64 |
| L20A | 1.85 |
| L20R | 1.47 |
| L20W | 2.31 |
| L20Q | 4.03 |
| L20D | 2.38 |
| G15L | 3.31 |
| G15W | 1.9 |
| G15I | 2.66 |
| G15S | 2.95 |
| L8E | 1.66 |
| L8C | 2.17 |
| L8Y | 2.79 |
| L8D | 1.91 |
| L8N | 2.08 |
| L8W | 1.62 |
| L8A | 3.44 |

| Variant | protein stability index |
| --- | --- |
| L8S | 1.28 |
| L8H | 1.73 |
| L8T | 1.88 |
| L8Q | 2.13 |
| L8G | 3.09 |
| Q9N | 2.7 |
| Q9C | 2.9 |
| Q9F | 2.13 |
| Q9P | 1.25 |
| Q9A | 2.91 |
| Q9W | 2.71 |
| Q9L | 2.74 |
| Q9M | 1.77 |
| G24Q | 3.31 |
| G24T | 2.27 |
| G24A | 1.65 |
| G24W | 2.13 |
| G24N | 1.07 |
| G24P | 2.47 |
| G24C | 1.89 |
| G24M | 2.92 |
| G24F | 2.43 |
| G24R | 2.65 |
| G24K | 3.01 |
| G24L | 2.97 |
| G24Y | 2.12 |

| Variant | protein stability index |
| --- | --- |
| Q13S | 3.55 |
| Q13H | 2.75 |
| Q13L | 2.38 |
| Q13M | 4.22 |
| Q13N | 2.81 |
| Q13T | 1.8 |
| Q13C | 3.12 |
| Q13W | 4.1 |
| Q13G | 2.27 |
| Q13Y | 1.97 |
| Q13F | 2.43 |
| R19K | 3.35 |
| R19H | 3.88 |
| R19W | 3.14 |
| R19Y | 2.66 |
| R19S | 3.54 |
| R19A | 2.88 |
| R19E | 2.1 |
| R19P | 2.84 |
| R19T | 1.74 |
| R19V | 1.95 |
| R19L | 1.22 |
| R19C | 2.93 |
| R19G | 1.88 |
| R19I | 1.84 |
| R19M | 1.97 |

| Variant | protein stability index |
| --- | --- |
| A22Y | 2.13 |
| A22L | 3.17 |
| A22I | 3.44 |
| A22K | 1.96 |
| A22H | 4.48 |
| A22F | 1.59 |
| A22S | 2.32 |
| A22T | 3.45 |
| R21D | 2.28 |
| R21Q | 2.76 |
| R21F | 1.58 |
| R21N | 3.14 |
| R21Y | 2.7 |
| R21K | 2.17 |
| L23Y | 2.61 |
| L23P | 2.6 |
| L23C | 3.82 |
| L23G | 3.3 |
| L23F | 1.77 |
| L23S | 2.6 |
| S14Q | 2.52 |
| S14M | 2.02 |
| S14R | 1.84 |
| S14I | 3.42 |
| S14N | 4.03 |
| S14H | 2.92 |

| Variant | protein stability index |
| --- | --- |
| S14V | 3.65 |
| S14T | 3.4 |
| S14E | 2.56 |
| S14G | 3.08 |
| Y18N | 1.79 |
| Y18L | 4.02 |
| Y18I | 2.96 |
| Y18R | 1.85 |
| Y18P | 2.45 |
| Y18E | 2.07 |
| Y18T | 1.9 |
| Y18K | 1.86 |
| Y18A | 1.84 |
| Y11W | 1.74 |
| Y11S | 3.12 |
| Y11M | 3.5 |
| Y11L | 1.34 |
| Y11F | 3.33 |
| Y11R | 3.03 |
| Y11C | 2.45 |
| Y11A | 1.28 |

Variants of: B2
Assay: as above
Conditions: c terminus: a fixed tail appended

| Variant | protein stability index |
| --- | --- |
| V2L | 2.74 |
| V2C | 2.48 |
| V2P | 3.15 |
| V2R | 3.05 |
| V2K | 2.65 |
| V2D | 3.76 |
| V2N | 3.11 |
| V2A | 2.8 |
| V2E | 3.78 |
| V2H | 2.35 |
| V2Q | 2.87 |
| V2Y | 2.42 |
| V2I | 2.22 |
| V2F | 2.71 |
| V2S | 2.62 |
| V2T | 2.71 |
| V2M | 2.71 |
| V2W | 1.98 |
| V2G | 3.3 |
| H4F | 1.72 |
| H4D | 2.49 |
| H4N | 2.11 |
| H4W | 1.6 |

| Variant | protein stability index |
| --- | --- |
| H4Q | 1.78 |
| H4A | 1.47 |
| H4M | 2.72 |
| H4S | 2.64 |
| H4Y | 1.44 |
| H4G | 1.5 |
| H4T | 2.38 |
| H4R | 1.97 |
| H4P | 2.17 |
| H4E | 2.63 |
| H4I | 1.89 |
| H4L | 1.7 |
| H4K | 2.18 |
| H4C | 2.49 |
| H4V | 2.08 |
| F10E | 2.75 |
| F10A | 2.53 |
| F10C | 1.94 |
| F10I | 2.04 |
| F10K | 2.78 |
| F10G | 2.77 |
| F10P | 2.54 |
| F10M | 2.53 |

| Variant | protein stability index |
| --- | --- |
| F10H | 2.05 |
| F10N | 2.86 |
| F10D | 3.03 |
| F10L | 2.01 |
| Q8E | 2.43 |
| Q8N | 1.92 |
| Q8T | 2.6 |
| Q8P | 2.1 |
| Q8R | 2.15 |
| Q8L | 1.22 |
| Q8D | 2.03 |
| Q8M | 1.28 |
| Q8K | 2.27 |
| Q8F | 2.05 |
| Q8S | 2.15 |
| Q8C | 2.14 |
| Q8V | 1.77 |
| Q8G | 1.81 |
| Q8Y | 1.74 |
| Q8H | 2.32 |
| Q8W | 1.55 |
| Q8I | 2.66 |
| Q8A | 2.26 |

| Variant | protein stability index |
| --- | --- |
| M6T | 2.12 |
| M6P | 2.44 |
| M6E | 3.24 |
| M6R | 2.63 |
| M6L | 1.93 |
| M6I | 2.12 |
| M6G | 2.16 |
| M6A | 2.75 |
| M6Q | 2.74 |
| M6C | 2.86 |
| M6H | 2.34 |
| M6F | 2.02 |
| M6Y | 2.23 |
| M6D | 3.03 |
| M6V | 2.48 |
| M6S | 2.4 |
| M6K | 3.28 |
| M6W | 2.15 |
| M6N | 2.92 |
| H1R | 2.31 |
| H1G | 3.08 |
| H1C | 2.04 |
| H1W | 1.78 |

| Variant | protein stability index |
| --- | --- |
| H1T | 2.91 |
| H1E | 2.78 |
| H1M | 2.5 |
| H1P | 3.08 |
| H1D | 2.68 |
| H1S | 2.61 |
| H1A | 2.68 |
| H1I | 1.83 |
| H1N | 2.76 |
| H1L | 2.14 |
| H1K | 2.46 |
| H1Y | 3.14 |
| H1Q | 2.68 |
| H1V | 2.51 |
| H1F | 1.89 |
| T3S | 1.64 |
| T3D | 1.66 |
| T3L | 1.59 |
| T3A | 2.5 |
| T3Y | 1.91 |
| T3M | 2.05 |
| T3G | 1.19 |
| T3I | 2.01 |

| Variant | protein stability index |
| --- | --- |
| T3W | 1.4 |
| T3V | 2.78 |
| T3F | 1.69 |
| T3Q | 1.93 |
| T3P | 3.11 |
| T3H | 1.93 |
| T3K | 1.91 |
| T3C | 1.8 |
| T3E | 2.38 |
| T3R | 1.95 |
| T3N | 1.99 |
| G7V | 1.84 |
| G7R | 1.76 |
| G7D | 2.46 |
| G7L | 2.26 |
| G7Y | 1.88 |
| G7I | 2.03 |
| G7F | 2.45 |
| G7E | 2.63 |
| G7H | 1.97 |
| G7S | 1.65 |
| G7Q | 2.07 |
| G7P | 2.24 |

| Variant | protein stability index |
| --- | --- |
| G7K | 1.89 |
| G7A | 2.35 |
| G7W | 3.07 |
| G7T | 1.91 |
| G7N | 2.23 |
| G7C | 2.02 |
| G7M | 1.39 |
| W5H | 3.8 |
| W5T | 3.43 |
| W5I | 3.02 |
| W5L | 2.53 |
| W5N | 3.86 |
| W5V | 3.55 |
| W5F | 2.72 |
| W5Q | 3.47 |
| W5R | 3.56 |
| W5K | 3.12 |
| W5G | 3.89 |
| W5P | 3.3 |
| W5D | 4.27 |
| W5M | 3.04 |
| W5E | 4.26 |
| W5S | 4 |

| Variant | protein stability index |
| --- | --- |
| W5Y | 3.01 |
| W5A | 3.26 |
| W5C | 3.33 |
| P9M | 2.38 |
| P9Q | 2.4 |
| P9L | 2 |
| P9Y | 2.43 |
| P9T | 2.29 |
| P9C | 1.75 |
| P9G | 1.88 |
| P9A | 2.36 |
| P9N | 2.2 |
| P9W | 1.6 |
| P9S | 2.06 |
| P9D | 1.99 |
| P9V | 1.55 |
| P9R | 2.21 |
| P9I | 1.75 |
| P9K | 1.9 |
| P9E | 2.3 |
| P9H | 2.23 |
| P9F | 1.43 |
